Test results from the supplement of paper PMC7125110.
± gives the standard error. For part of these data: This sample holds only a part of the variants without activity.

B1: glmS ribozyme (parent)
chain: AUAAAAGCGCCAGAACUACAGAAAUGUAGUUGACGAGGAGGAGGUUUAUCGAAUUUUCGGCGGAUGCCUCCAAA

Experiments:
Conditions in all cases: with glucosamine-6-phosphate
glucosamine-6-phosphate [1] = variants of: B1; test: kcat; higher = faster cleavage; RNA array
Summary of the method: (§1)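 Barcoded ribozyme variants, transcribed in situ by E. coli RNA polymerase on sequenced MiSeq chips, were followed via a hybridised Cy3 probe at 37 °C. Glucosamine-6-phosphate ranged from 40 μM to 10 mM in HEPES/KCl/Mg(OAc)2 buffer. kobs came from decay fits to per-tile medians, and kcat and KM from weighted Michaelis–Menten fits.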

glucosamine-6-phosphate [2] = variants of: B1; test: self-cleavage kobs at 160 uM GlcN6P; higher = faster cleavage; RNA array
Summary of the method: as §1

glucosamine-6-phosphate [3] = variants of: B1; test: self-cleavage kobs at 640 uM GlcN6P; higher = faster cleavage; RNA array
Summary of the method: as §1

glucosamine-6-phosphate [4] = variants of: B1; test: self-cleavage kobs at 2500 uM GlcN6P; higher = faster cleavage; RNA array
Summary of the method: as §1

glucosamine-6-phosphate [5] = variants of: B1; test: self-cleavage kobs at 40 uM GlcN6P; higher = faster cleavage; RNA array
Summary of the method: as §1

glucosamine-6-phosphate [6] = variants of: B1; test: self-cleavage kobs at 10000 uM GlcN6P; higher = faster cleavage; RNA array
Summary of the method: as §1

glucosamine-6-phosphate [7] = variants of: B1; test: KM; higher = weaker cofactor use; RNA array
Summary of the method: as §1

Variant | kcat (glucosamine-6-phosphate [1]) | self-cleavage kobs at 160 uM GlcN6P (glucosamine-6-phosphate [2]) | self-cleavage kobs at 640 uM GlcN6P (glucosamine-6-phosphate [3]) | self-cleavage kobs at 2500 uM GlcN6P (glucosamine-6-phosphate [4]) | self-cleavage kobs at 40 uM GlcN6P (glucosamine-6-phosphate [5]) | self-cleavage kobs at 10000 uM GlcN6P (glucosamine-6-phosphate [6]) | KM (glucosamine-6-phosphate [7])
C67G C68G | 4.53e-05 ± 9.2e-06 s⁻¹ | 6.2e-05 ± 7.7e-06 s⁻¹ | 5.01e-05 ± 6.5e-06 s⁻¹ | 3.7e-05 ± 4.7e-06 s⁻¹ |  |  | 
G35U U55C | < 1e-05 s⁻¹ | < 1e-05 s⁻¹ |  | < 1e-05 s⁻¹ | < 1e-05 s⁻¹ | < 1e-05 s⁻¹ | 
C34U C58G | < 1e-05 s⁻¹ |  |  |  |  | < 1e-05 s⁻¹ | 
A14U G37A | 0.000902 ± 0.00022 s⁻¹ | 6.22e-05 ± 1.3e-05 s⁻¹ | 0.00012 ± 1.5e-05 s⁻¹ | 0.00043 ± 5.9e-05 s⁻¹ |  | 0.000648 ± 7.7e-05 s⁻¹ | 3590 ± 1400 µM
A14U A15C | 9.41e-05 ± 8.4e-06 s⁻¹ |  | 3.12e-05 ± 1.3e-05 s⁻¹ | 5.02e-05 ± 9.3e-06 s⁻¹ |  | 8.11e-05 ± 1.1e-05 s⁻¹ | 1880 ± 510 µM
A12G G40C | 0.000334 ± 3.5e-05 s⁻¹ |  | 5.37e-05 ± 1e-05 s⁻¹ | 0.000124 ± 1.6e-05 s⁻¹ |  | 0.000248 ± 3.1e-05 s⁻¹ | 3830 ± 720 µM
A15U A42G | 0.00684 ± 0.0019 s⁻¹ | 0.000542 ± 0.00018 s⁻¹ | 0.00165 ± 0.00033 s⁻¹ | 0.0039 ± 0.0016 s⁻¹ | 0.000222 ± 3.2e-05 s⁻¹ | 0.00687 ± 0.0013 s⁻¹ | 1500 ± 570 µM
A12U U46G | 0.023 ± 0.007 s⁻¹ |  | 0.00656 ± 0.0018 s⁻¹ | 0.0119 ± 0.0035 s⁻¹ | 0.000297 ± 7.2e-05 s⁻¹ | 0.0167 ± 0.0047 s⁻¹ | 2700 ± 1100 µM
U54A C68A | 5.71e-05 ± 2e-05 s⁻¹ | 4.94e-05 ± 1.5e-05 s⁻¹ | 7.98e-05 ± 1.5e-05 s⁻¹ | 7.88e-05 ± 1.1e-05 s⁻¹ |  |  | 
G13U G29U U31C | 1.48e-05 ± 3.5e-06 s⁻¹ |  |  |  | < 1e-05 s⁻¹ |  | 
C16A U65G | 0.000487 ± 7.9e-05 s⁻¹ |  | 8.78e-05 ± 1.8e-05 s⁻¹ | 0.000156 ± 5.5e-05 s⁻¹ |  | 0.000382 ± 5.9e-05 s⁻¹ | 3310 ± 1000 µM
C8A G37C | < 1e-05 s⁻¹ | < 1e-05 s⁻¹ | < 1e-05 s⁻¹ |  |  |  | 
A6G A53G | 0.000509 ± 6.7e-05 s⁻¹ | 3.62e-05 ± 1.3e-05 s⁻¹ | 9.71e-05 ± 1.5e-05 s⁻¹ | 0.000306 ± 4.1e-05 s⁻¹ |  | 0.000395 ± 4.4e-05 s⁻¹ | 2390 ± 600 µM
A42G A52G | 0.00211 ± 0.00034 s⁻¹ | 0.000117 ± 1.7e-05 s⁻¹ | 0.000471 ± 4.8e-05 s⁻¹ | 0.000991 ± 8.9e-05 s⁻¹ |  | 0.00187 ± 0.00037 s⁻¹ | 2550 ± 600 µM
C11U U54C | 0.00157 ± 0.00021 s⁻¹ | 0.000204 ± 9.2e-05 s⁻¹ | 0.000616 ± 0.00017 s⁻¹ | 0.00092 ± 0.00024 s⁻¹ | 6.42e-05 ± 1.2e-05 s⁻¹ | 0.00167 ± 0.00033 s⁻¹ | 990 ± 210 µM
C16G A48G | < 1e-05 s⁻¹ |  |  |  | < 1e-05 s⁻¹ |  | 
A6C C16G U31C C34G C68A | 1.74e-05 ± 6.6e-06 s⁻¹ |  |  |  |  |  | 

Variant | kcat (glucosamine-6-phosphate [1]) | self-cleavage kobs at 160 uM GlcN6P (glucosamine-6-phosphate [2]) | self-cleavage kobs at 640 uM GlcN6P (glucosamine-6-phosphate [3]) | self-cleavage kobs at 2500 uM GlcN6P (glucosamine-6-phosphate [4]) | self-cleavage kobs at 40 uM GlcN6P (glucosamine-6-phosphate [5]) | self-cleavage kobs at 10000 uM GlcN6P (glucosamine-6-phosphate [6]) | KM (glucosamine-6-phosphate [7])
A15G G37A | 0.00317 ± 0.0014 s⁻¹ | 0.000154 ± 2.7e-05 s⁻¹ | 0.000515 ± 7.3e-05 s⁻¹ | 0.00123 ± 0.00023 s⁻¹ | 8.19e-05 ± 9.7e-06 s⁻¹ | 0.00292 ± 0.00037 s⁻¹ | 
A42C U56C | < 1e-05 s⁻¹ |  |  |  | < 1e-05 s⁻¹ |  | 
G9A G38U | < 1e-05 s⁻¹ |  | < 1e-05 s⁻¹ |  |  |  | 
C11U C71U | 0.00111 ± 0.0002 s⁻¹ | 0.000143 ± 2.6e-05 s⁻¹ | 0.000418 ± 7.1e-05 s⁻¹ | 0.000796 ± 0.00014 s⁻¹ | 0.000116 ± 4.3e-05 s⁻¹ | 0.00102 ± 0.0002 s⁻¹ | 1030 ± 320 µM
C10U A12U | 0.000153 ± 2.3e-05 s⁻¹ |  | 1.92e-05 ± 6e-06 s⁻¹ | 8.4e-05 ± 1.2e-05 s⁻¹ |  | 0.000113 ± 9e-06 s⁻¹ | 3200 ± 1200 µM
C61G G62U C68G | 1.21e-05 ± 3.9e-06 s⁻¹ |  |  |  |  |  | 
G37U U47A | < 1e-05 s⁻¹ |  | < 1e-05 s⁻¹ |  |  |  | 
C67U C68G | 2.52e-05 ± 6.7e-06 s⁻¹ |  | 3.49e-05 ± 1.2e-05 s⁻¹ | 2.57e-05 ± 1.2e-05 s⁻¹ |  |  | 
U57G C67A | 2.87e-05 ± 6.3e-06 s⁻¹ |  |  |  |  | 2.45e-05 ± 1.2e-05 s⁻¹ | 
A14G U47A | 0.00972 ± 0.0015 s⁻¹ | 0.0041 ± 0.0011 s⁻¹ | 0.00942 ± 0.0021 s⁻¹ | 0.00943 ± 0.002 s⁻¹ | 0.00113 ± 0.00022 s⁻¹ | 0.00772 ± 0.0019 s⁻¹ | 275 ± 78 µM
A14U U45C | 0.000739 ± 0.00014 s⁻¹ |  | 0.000105 ± 1.9e-05 s⁻¹ | 0.000436 ± 6.7e-05 s⁻¹ |  | 0.000531 ± 6e-05 s⁻¹ | 3320 ± 1200 µM
U65C C70G | 1.37e-05 ± 3.9e-06 s⁻¹ |  |  |  |  |  | 
G51U U65G G66C | < 1e-05 s⁻¹ |  | < 1e-05 s⁻¹ |  |  | < 1e-05 s⁻¹ | 
G32A A39U | 0.00242 ± 0.00045 s⁻¹ | 6.05e-05 ± 1.1e-05 s⁻¹ | 0.000213 ± 2.9e-05 s⁻¹ | 0.000855 ± 0.0001 s⁻¹ |  | 0.00144 ± 0.00017 s⁻¹ | 6090 ± 1600 µM
U31C A48U | 6.21e-05 ± 6.5e-06 s⁻¹ | < 1e-05 s⁻¹ |  |  | < 1e-05 s⁻¹ | 4.85e-05 ± 9.7e-06 s⁻¹ | 2780 ± 1100 µM
U55A U65G | 0.00556 ± 0.0024 s⁻¹ | 0.000125 ± 4.4e-05 s⁻¹ | 0.000517 ± 0.0001 s⁻¹ | 0.00303 ± 0.001 s⁻¹ | 7.69e-05 ± 2.5e-05 s⁻¹ | 0.00343 ± 0.00072 s⁻¹ | 
A33U A52G | 3.65e-05 ± 1.3e-05 s⁻¹ |  |  |  |  | 1.94e-05 ± 7.9e-06 s⁻¹ | 
